Our source for the concentration from which staining was minimally detectable, % ICOS-Ig positive and fluorescence shift over background values is patent US20040054158A1.

Assay [1] deals with GL50 (ICOS-ligand) on mouse cells (WEHI 231, undifferentiated CCE ES cells, Balb/C and RAG1 -/- splenocytes) (mouse) (UniProt Q9JHJ8). The assay can be described thus: flow cytometry, titered staining of WEHI 231 cells. (In general: Flow cytometry measures light scatter and fluorescence of single cells or particles in a stream.)
For assay [2] the target is unchanged. The assay can be described thus: flow cytometry, Balb/C splenocytes, anti-CD3 stained subset.
Assay [3] has the same target. The assay can be described thus: flow cytometry, Balb/C splenocytes, anti-CD4 stained subset.
Assay [4] has the same target. The assay can be described thus: flow cytometry, Balb/C splenocytes, anti CD40 stained subset.
Assay [5] shares this target. The assay can be described thus: flow cytometry, Balb/C splenocytes, anti CD69 stained subset.
For assay [6] the target is unchanged. The assay can be described thus: flow cytometry, Balb/C splenocytes, anti-CD19 stained subset.
Assay [7] shares this target. The assay can be described thus: flow cytometry, Balb/C splenocytes, anti-CD24 stained subset.
Assay [8] shares this target. The assay can be described thus: flow cytometry, Balb/C splenocytes, anti-CD8a stained subset.
Assay [9] shares this target. The assay can be described thus: flow cytometry, RAG1-/- splenocytes, anti-CD4 stained subset.
The target is the same in assay [10]. The assay can be described thus: flow cytometry, Balb/C splenocytes, anti-CD11B stained subset.
The target is the same in assay [11]. The assay can be described thus: flow cytometry, Balb/C splenocytes, anti-CD11C stained subset.
For assay [12] the target is unchanged. The assay can be described thus: flow cytometry, RAG1-/- splenocytes, anti CD69 stained subset.
The target is the same in assay [13]. The assay can be described thus: flow cytometry, RAG1-/- splenocytes, anti-CD24 stained subset.
The target is the same in assay [14]. The assay can be described thus: flow cytometry, Balb/C splenocytes, anti-pan NK stained subset.
Assay [15] has the same target. The assay can be described thus: flow cytometry, RAG1-/- splenocytes, anti-CD11B stained subset.
Assay [16] has the same target. The assay can be described thus: flow cytometry, RAG1-/- splenocytes, anti-CD11C stained subset.
For assay [17] the target is unchanged. The assay can be described thus: flow cytometry, RAG1-/- splenocytes, anti-pan NK stained subset.
Assay [18] has the same target. The assay can be described thus: flow cytometry, Balb/C splenocytes, anti class II stained subset.
Assay [19] shares this target. The assay can be described thus: flow cytometry, RAG1-/- splenocytes, anti class II stained subset.
For assay [20] the target is unchanged. The assay can be described thus: flow cytometry, Balb/C splenocytes, anti-CD45R/B220 stained subset.
Assay [21] shares this target. The assay can be described thus: flow cytometry, RAG1-/- splenocytes, anti-CD45R/B220 stained subset.
Assay [22] has the same target. The assay can be described thus: flow cytometry, indirect staining of undifferentiated CCE ES cells.
For assay [23] the target is unchanged. The assay can be described thus: flow cytometry, RAG1-/- splenocytes, CD11b+ subset (text value; the table prints 31%).

B1: mICOS-mIgG2am (Fc fusion)
chain: EINGSADHRMFSFHNGGVQISCKYPETVQQLKMRLFREREVLCELTKTKGSGNAVSIKNPMLCLYHLSNNSVSFFLNNPDSSQGSYYFCSLSIFDPPPFQERNLSGGYLHIYESQLCCQLKLEPRGPTIKPCPPCKCPAPNLEGGPSVFIFPPKIKDVLMISLSPIVTCVVVDVSEDDPDVQISWFVNNVEVHTAQTQTHREDYNSTLRVVSALPIQHQDWMSGKAFACAVNNKDLPAPIERTISKPKGSVRAPQVYVLPPPEEEMTKKQVTLTCMVTDFMPEDIYVEWTNNGKTELNYKNTEPVLDSDGSYFMYSKLRVEKKNWVERNSYSCSVVHEGLHNHHTTKSFSRTPGK
Take B1: the concentration from which staining was minimally detectable in assay [1] was determined as 1 µg/mL. Besides, the % ICOS-Ig positive in assay [2] is 10%; in [3], 8%; in [4], 97%; in assay [5], 25%; in assay [6], 97%; in [7], 94%. Moreover, the % ICOS-Ig positive came out at 10% in assay [8]; 45% in [9]; 26% in assay [10]; 43% in assay [11]; 5% in assay [12]; 28% in assay [13]. Further, the % ICOS-Ig positive was determined as 20% in [14]; 31% in assay [15]; 55% in assay [16]; 3% in [17]; 95% in [18]; 3% in [19]. Moreover, the % ICOS-Ig positive was found to be 97% in assay [20], 5% in assay [21] and 35% in assay [23]. Further, in assay [22], the fluorescence shift over background came out at 0.5 log.
